Experimental data taken from the supplement of paper PMC10567573.

B1: GLT8D2 (parent)
chain: QEAKLLHWNGRHKPWDFPSVHNDL
B2: PTPN9 (parent)
chain: NKWTVQYNVSPLSWNVAVKFLMAR

Variants of: B1
Assay: protein stability index of a GFP-peptide fusion (GPS, HEK-293T) (PSI 1-6); higher = more stable
Settings: c terminus: a fixed tail appended
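Further: lentivirally expressed fusions sorted by FACS into six bins by GFP to DsRed ratio, PSI derived from sequencing read proportions per bin multiplied by bin number.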

Variant	protein stability index
QEAKLLHWNGRHKPWDFPSVGNDL [H21G]	3.09
QEAKLLHWNGRHKPWDFPSVWNDL [H21W]	2.18
QEAKLLHWNGRHKPWDFPSVLNDL [H21L]	2.39
QEAKLLHWNGRHKPWDFPSVKNDL [H21K]	2.75
QEAKLLHWNGRHKPWDFPSVMNDL [H21M]	3.05
QEAKLLHWNGRHKPWDFPSVCNDL [H21C]	2.48
QEAKLLHWNGRHKPWDFPSVENDL [H21E]	3.46
QEAKLLHWNGRHKPWDFPSVRNDL [H21R]	3
QEAKLLHWNGRHKPWDFPSVVNDL [H21V]	2.67
QEAKLLHWNGRHKPWDFPSVTNDL [H21T]	3
QEAKLLHWNGRHKPWDFPSVNNDL [H21N]	2.96
QEAKLLHWNGRHKPWDFPSVINDL [H21I]	2.77
QEAKLLHWNGRHKPWDFPSVPNDL [H21P]	2.41
QEAKLLHWNGRHKPWDFPSVSNDL [H21S]	3.21
QEAKLLHWNGRHKPWDFPSVFNDL [H21F]	2.75
QEAKLLHWNGRHKPWDFPSVQNDL [H21Q]	2.94
QEAKLLHWNGRHKPWDFPSVYNDL [H21Y]	2.44
QEAKLLHWNGRHKPWDFPSVANDL [H21A]	2.9
QEAKLLHWNGRHKPWDFPSVDNDL [H21D]	3.39
QEAKLLHWNGRHKPWDFPSVHIDL [N22I]	2.06
QEAKLLHWNGRHKPWDFPSVHTDL [N22T]	2.5
QEAKLLHWNGRHKPWDFPSVHGDL [N22G]	2.63
QEAKLLHWNGRHKPWDFPSVHCDL [N22C]	2.11
QEAKLLHWNGRHKPWDFPSVHWDL [N22W]	2.08
QEAKLLHWNGRHKPWDFPSVHMDL [N22M]	2.01
QEAKLLHWNGRHKPWDFPSVHDDL [N22D]	3.27
QEAKLLHWNGRHKPWDFPSVHRDL [N22R]	2.35

Variant	protein stability index
QEAKLLHWNGRHKPWDFPSVHEDL [N22E]	3.2
QEAKLLHWNGRHKPWDFPSVHVDL [N22V]	1.92
QEAKLLHWNGRHKPWDFPSVHQDL [N22Q]	2.79
QEAKLLHWNGRHKPWDFPSVHSDL [N22S]	2.33
QEAKLLHWNGRHKPWDFPSVHPDL [N22P]	2.57
QEAKLLHWNGRHKPWDFPSVHHDL [N22H]	2.47
QEAKLLHWNGRHKPWDFPSVHLDL [N22L]	2.53
QEAKLLHWNGRHKPWDFPSVHYDL [N22Y]	1.91
QEAKLLHWNGRHKPWDFPSVHKDL [N22K]	2.7
QEAKLLHWNGRHKPWDFPSVHFDL [N22F]	2.08
QEAKLLHWNGRHKPWDFPSVHADL [N22A]	2.9
QEAKLLHWNGRHKPWDFPSVHNNL [D23N]	1.86
QEAKLLHWNGRHKPWDFPSVHNEL [D23E]	2.72
QEAKLLHWNGRHKPWDFPSVHNKL [D23K]	3.01
QEAKLLHWNGRHKPWDFPSVHNQL [D23Q]	2.4
QEAKLLHWNGRHKPWDFPSVHNVL [D23V]	2.81
QEAKLLHWNGRHKPWDFPSVHNRL [D23R]	1.88
QEAKLLHWNGRHKPWDFPSVHNLL [D23L]	1.48
QEAKLLHWNGRHKPWDFPSVHNWL [D23W]	2.48
QEAKLLHWNGRHKPWDFPSVHNFL [D23F]	2.6
QEAKLLHWNGRHKPWDFPSVHNGL [D23G]	2.23
QEAKLLHWNGRHKPWDFPSVHNPL [D23P]	2.27
QEAKLLHWNGRHKPWDFPSVHNAL [D23A]	1.96
QEAKLLHWNGRHKPWDFPSVHNYL [D23Y]	1.98
QEAKLLHWNGRHKPWDFPSVHNHL [D23H]	2.38
QEAKLLHWNGRHKPWDFPSVHNIL [D23I]	2.27
QEAKLLHWNGRHKPWDFPSVHNTL [D23T]	2.55

Variant	protein stability index
QEAKLLHWNGRHKPWDFPSVHNSL [D23S]	2.17
QEAKLLHWNGRHKPWDFPSVHNCL [D23C]	2.43
QEAKLLHWNGRHKPWDFPSVHNML [D23M]	1.92
QEAKLLHWNGRHKPWDFPSVHNDK [L24K]	2.87
QEAKLLHWNGRHKPWDFPSVHNDV [L24V]	2.42
QEAKLLHWNGRHKPWDFPSVHNDM [L24M]	2.98
QEAKLLHWNGRHKPWDFPSVHNDF [L24F]	2.14
QEAKLLHWNGRHKPWDFPSVHNDD [L24D]	3.75
QEAKLLHWNGRHKPWDFPSVHNDQ [L24Q]	3.5
QEAKLLHWNGRHKPWDFPSVHNDH [L24H]	2.65
QEAKLLHWNGRHKPWDFPSVHNDA [L24A]	3.33
QEAKLLHWNGRHKPWDFPSVHNDY [L24Y]	2.98
QEAKLLHWNGRHKPWDFPSVHNDC [L24C]	3.01
QEAKLLHWNGRHKPWDFPSVHNDS [L24S]	3.51
QEAKLLHWNGRHKPWDFPSVHNDI [L24I]	2.44
QEAKLLHWNGRHKPWDFPSVHNDG [L24G]	3.07
QEAKLLHWNGRHKPWDFPSVHNDE [L24E]	4.01
QEAKLLHWNGRHKPWDFPSVHNDR [L24R]	2.74
QEAKLLHWNGRHKPWDFPSVHNDN [L24N]	3.25
QEAKLLHWNGRHKPWDFPSVHNDT [L24T]	3.41
QEAKLLHWNGRHKPWDFPSVHNDP [L24P]	2.85
QEAKLLHWNGRHKPWDFPSVHNDW [L24W]	2.06
QEAKLLHWNGRHKPWDFPSYHNDL [V20Y]	2.06
QEAKLLHWNGRHKPWDFPSWHNDL [V20W]	2.38
QEAKLLHWNGRHKPWDFPSSHNDL [V20S]	3
QEAKLLHWNGRHKPWDFPSTHNDL [V20T]	2.52

Variants of: B2
Assay: as above
Settings: c terminus: a fixed tail appended

Variant	protein stability index
WKWTVQYNVSPLSWNVAVKFLMAR [N1W]	3.28
SKWTVQYNVSPLSWNVAVKFLMAR [N1S]	1.54
NKWTWQYNVSPLSWNVAVKFLMAR [V5W]	5.45
NKWTMQYNVSPLSWNVAVKFLMAR [V5M]	3.19
NKWTSQYNVSPLSWNVAVKFLMAR [V5S]	1.99
NKWTIQYNVSPLSWNVAVKFLMAR [V5I]	3.45
NKWTLQYNVSPLSWNVAVKFLMAR [V5L]	2.96
NKWTPQYNVSPLSWNVAVKFLMAR [V5P]	1.94
NKWTVQMNVSPLSWNVAVKFLMAR [Y7M]	2.91
NKWTVQNNVSPLSWNVAVKFLMAR [Y7N]	2.14
NKWTVQCNVSPLSWNVAVKFLMAR [Y7C]	2.47
NKWTVQINVSPLSWNVAVKFLMAR [Y7I]	2.83
NKWTVQYNVSLLSWNVAVKFLMAR [P11L]	2.59
NKWTVQYNVSWLSWNVAVKFLMAR [P11W]	4.3
